The stoichiometry N is the number of molecules, sites or subunits per partner or assembly.

Results on 1 substance are retold here after PMC4163360.

The assay concerns the target selenomethionyl (Se-Met) labeled MJ0927 (Methanocaldococcus jannaschii). Description: crystal structure; Se-Met MJ0927, P2_(1) crystal form, MAD phasing; crystals grown at 4°C, 5% PEG3350, 0.1 M sodium acetate pH 5.0, 0.3 M sodium formate, 0.1 M ammonium sulfate, 3% PGA-LM; six molecules in the asymmetric unit.

As to “selenomethionyl (Se-Met) labeled MJ0927 (natural protein)”, the stoichiometry N turned out to be 6.
